Measured values taken from patent publication US20140227225, “HCV Helicase Inhibitors and Methods of Use Thereof” (UWM RESEARCH FOUNDATION, INC., published 2014).

Target: SSB single-stranded DNA-binding protein (Escherichia coli, UniProt P0AGE0 P0AGE0:2-178)
Experiment: FP; complex of 5 nM Cy5-dT15 with 20 nM SSB, disrupted by compounds; 25 mM MOPS pH 7.5, 1.25 mM MgCl2
Details: tags: Promega; chain copies: 4; label: 5'-Cy5
Protocol: The Escherichia coli SSB assay was performed in a total volume of 20.2 μl in 384-well, flat-bottom, low volume, black microplates (Greiner Bio-One).
For IC₅₀ determination, assays were performed with 60 μl total volume in black flat bottomed 384-well microplates (Corning). First, 3.0 μl of DMSO or compound dissolved in DMSO was added, such that the final concentration of DMSO was 5% (v/v) in each assay.

Sequence of SSB single-stranded DNA-binding protein (P0AGE0 2-178, one chain of several): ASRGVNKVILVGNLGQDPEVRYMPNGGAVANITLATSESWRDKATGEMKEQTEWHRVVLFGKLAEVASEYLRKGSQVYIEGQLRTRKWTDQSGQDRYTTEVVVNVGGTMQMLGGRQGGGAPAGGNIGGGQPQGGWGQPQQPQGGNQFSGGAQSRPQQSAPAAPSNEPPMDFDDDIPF

Binder: TTTTTTTTTTTTTTT (ssDNA) [Cy5-dT15]
- binding result: binds
